Source: the Immune Epitope Database (IEDB)

What was measured:
Assay in all cases: IEDB peptide-MHC binding, purified MHC/competitive/radioactivity; ≥ and ≤ were set here for values at or beyond the usual limits of such assays
[1] = molecular target: HLA-A*68:02
[2] = molecular target: HLA-A*02:02
[3] = molecular target: HLA-A*02:01
[4] = molecular target: HLA-A*02:06
[5] = molecular target: HLA-A*02:03
[6] = source organism: Vaccinia virus WR
[7] = source organism: Mammarenavirus whitewaterense
[8] = source organism: Hepacivirus hominis
[9] = source organism: Mammarenavirus guanaritoense

Sequence	IC50 [1, 6] [nM]	IC50 [2, 6] [nM]	IC50 [3, 6] [nM]	IC50 [4, 6] [nM]	IC50 [5, 6] [nM]	other results
FIISTLNKI	1500	1.6	6.1	5.8	0.42	–
GTSVIRSNI	96	386	666	1610	45	–
FLAFLLFLV	–	–	–	–	–	IC50 ([1]; source organism: SARS-CoV1): 66 nM; IC50 ([2]; source organism: SARS-CoV1): 1.8 nM; IC50 ([3]; source organism: SARS-CoV1): 8.3 nM; IC50 ([4]; source organism: SARS-CoV1): 9 nM; IC50 ([5]; source organism: SARS-CoV1): 58 nM
DQLVFNSISA	4130	206	527	759	289	–
TIDAINKCV	222	90	783	406	634	–
HVLLPFYETL	2270	29	17	115	213	–
ILLILSCIFA	2750	448	21	492	307	–
KLPTLFGRGV	509	190	273	53	33	–
CLDAGINYV	–	–	–	–	–	IC50 ([1]; source organism: SARS-CoV1): 79 nM; IC50 ([2]; source organism: SARS-CoV1): 0.57 nM; IC50 ([3]; source organism: SARS-CoV1): 0.91 nM; IC50 ([4]; source organism: SARS-CoV1): 1.6 nM; IC50 ([5]; source organism: SARS-CoV1): 6.4 nM
TVIKTLLEV	–	–	–	–	–	IC50 [1, 7]: 2.8 nM; IC50 [2, 7]: 2020 nM; IC50 [3, 7]: 276 nM; IC50 [4, 7]: 17 nM; IC50 [5, 7]: 53 nM
LAISAVYFKA	802	1430	770	659	363	–
SLPSYAAYA	–	–	–	–	–	IC50 ([1]; source organism: SARS-CoV1): 334 nM; IC50 ([2]; source organism: SARS-CoV1): 6.7 nM; IC50 ([3]; source organism: SARS-CoV1): 3.9 nM; IC50 ([4]; source organism: SARS-CoV1): 8.7 nM; IC50 ([5]; source organism: SARS-CoV1): 2.6 nM
PMSRLFMDEI	1360	1930	4020	4370	726	–
FMYTKHSML	3540	2.4	20	222	0.39	–
TIAGGVCYYL	0.13	0.036	0.24	4	34	–
NLFDIPLLT	2890	135	10	1540	36	–
KAKQLCYCPA	2460	308	1500	339	188	–
VVHGYFTEV	–	–	–	–	–	IC50 ([1]; source organism: SARS-CoV1): 24 nM; IC50 ([2]; source organism: SARS-CoV1): 17 nM; IC50 ([3]; source organism: SARS-CoV1): 15 nM; IC50 ([4]; source organism: SARS-CoV1): 2.6 nM; IC50 ([5]; source organism: SARS-CoV1): 3.3 nM
YLMCLSPLMA	–	–	–	–	–	IC50 ([1]; source organism: SARS-CoV1): 166 nM; IC50 ([2]; source organism: SARS-CoV1): 0.24 nM; IC50 ([3]; source organism: SARS-CoV1): 0.65 nM; IC50 ([4]; source organism: SARS-CoV1): 1.3 nM; IC50 ([5]; source organism: SARS-CoV1): 0.13 nM
VVFLHVTYV	–	–	–	–	–	IC50 ([1]; source organism: SARS-CoV1): 1 nM; IC50 ([2]; source organism: SARS-CoV1): 7.8 nM; IC50 ([3]; source organism: SARS-CoV1): 3.9 nM; IC50 ([4]; source organism: SARS-CoV1): 3.9 nM; IC50 ([5]; source organism: SARS-CoV1): 0.28 nM
LMDSIFVSTM	680	3.7	259	610	8.1	–
SIDHCSSFI	27	631	246	199	13	–
LVIGVAFLAV	–	–	–	–	–	IC50 ([1]; source organism: SARS-CoV1): 62 nM; IC50 ([2]; source organism: SARS-CoV1): 2710 nM; IC50 ([3]; source organism: SARS-CoV1): 342 nM; IC50 ([4]; source organism: SARS-CoV1): 2.6 nM; IC50 ([5]; source organism: SARS-CoV1): 22 nM
YTVEFDRDKV	4.5	83	934	22	154	–
VIIMAINVFT	740	320	641	674	820	–
MLLNVQTLI	216	0.17	2.9	0.22	0.25	–
HAFLCLFLL	–	–	–	–	–	IC50 ([1]; source organism: SARS-CoV1): 10 nM; IC50 ([2]; source organism: SARS-CoV1): 21 nM; IC50 ([3]; source organism: SARS-CoV1): 2.1 nM; IC50 ([4]; source organism: SARS-CoV1): 1.2 nM; IC50 ([5]; source organism: SARS-CoV1): 46 nM

Sequence	IC50 [1, 6] [nM]	IC50 [2, 6] [nM]	IC50 [3, 6] [nM]	IC50 [4, 6] [nM]	IC50 [5, 6] [nM]	other results
FLFWFLKSGA	38	1.1	1.9	23	0.58	–
KVTGSYNLV	538	66	754	193	43	–
LNASYITPYV	–	–	–	–	–	IC50 [1, 7]: 13 nM; IC50 [2, 7]: 33 nM; IC50 [3, 7]: 87 nM; IC50 [4, 7]: 38 nM; IC50 [5, 7]: 1070 nM
ALYSPPLISI	323	1.4	1130	162	150	–
LMSFTILCL	–	–	–	–	–	IC50 ([1]; source organism: SARS-CoV1): 709 nM; IC50 ([2]; source organism: SARS-CoV1): 0.27 nM; IC50 ([3]; source organism: SARS-CoV1): 0.14 nM; IC50 ([4]; source organism: SARS-CoV1): 1.8 nM; IC50 ([5]; source organism: SARS-CoV1): 16 nM
YTLLGCWSFV	–	–	–	–	–	IC50 [1, 8]: 182 nM; IC50 [2, 8]: 555 nM; IC50 [3, 8]: 435 nM; IC50 [4, 8]: 146 nM; IC50 [5, 8]: 169 nM
TLVDLCFWS	–	–	–	–	–	IC50 [1, 9]: 4880 nM; IC50 [2, 9]: 58 nM; IC50 [3, 9]: 61 nM; IC50 [4, 9]: 134 nM; IC50 [5, 9]: 524 nM
CNYTKFWYV	–	–	–	–	–	IC50 [1, 7]: 247 nM; IC50 [2, 7]: 1940 nM; IC50 [3, 7]: 725 nM; IC50 [4, 7]: 35 nM; IC50 [5, 7]: 794 nM
FMRFFTLGSI	–	–	–	–	–	IC50 ([1]; source organism: SARS-CoV1): 412 nM; IC50 ([2]; source organism: SARS-CoV1): 24 nM; IC50 ([3]; source organism: SARS-CoV1): 105 nM; IC50 ([4]; source organism: SARS-CoV1): 195 nM; IC50 ([5]; source organism: SARS-CoV1): 0.76 nM
YLYNKYSFKL	4.8	0.11	0.078	0.14	0.035	–
NMLRIMASL	–	–	–	–	–	IC50 ([1]; source organism: SARS-CoV1): 1310 nM; IC50 ([2]; source organism: SARS-CoV1): 3.4 nM; IC50 ([3]; source organism: SARS-CoV1): 68 nM; IC50 ([4]; source organism: SARS-CoV1): 50 nM; IC50 ([5]; source organism: SARS-CoV1): 38 nM
YSMAGNWAKV	–	–	–	–	–	IC50 [1, 8]: 28 nM; IC50 [2, 8]: 75 nM; IC50 [3, 8]: 175 nM; IC50 [4, 8]: 425 nM; IC50 [5, 8]: 17 nM
NMINKLYGYA	292	1.6	88	137	0.44	–
MMMNWSPTTA	–	–	–	–	–	IC50 [1, 8]: 1140 nM; IC50 [2, 8]: 14 nM; IC50 [3, 8]: 34 nM; IC50 [4, 8]: 849 nM; IC50 [5, 8]: 6.1 nM
AAVIIMAINV	95	1290	1450	446	607	–
ALMIAAQVVV	–	–	–	–	–	IC50 [1, 8]: 1420 nM; IC50 [2, 8]: 50 nM; IC50 [3, 8]: 129 nM; IC50 [4, 8]: 614 nM; IC50 [5, 8]: 71 nM
LMTLDDLAI	4410	52	74	288	76	–
RVSENTGMGM	66	839	766	146	89	–
AADLTQIFEV	4350	1240	17	11	404	–
NVFISPASI	1.9	202	136	660	0.73	–
ALVSDCAST	771	701	115	311	31	–
RLQMAGVEV	2510	326	1450	4110	531	–
NVSRVVECL	28	133	4110	1030	938	–
PASISSVLT	1490	1380	1200	1490	1360	–
RIVVALSSLV	8.5	48	51	9.6	7.2	–
IVNTTYDFL	750	1880	1050	2990	4680	–
